Here are results for two molecules from US8796201B2 (The Board of Trustees of the Leland Stanford Junior …, priority 2002, dated 2014).

Data set [1] deals with LQLQPFPQPQLPYPQPQLPYPQPQLPYPQPQPF (33-mer). The data set can be described thus: Hydrolysis of the 33-mer gliadin peptide by PEPs, HPLC. It is filed as biochemical, wheat. To be noted: for rate of substrate (33-mer+32-mer) disappearance: 10 μM substrate; for initial hydrolytic products of the 33-mer: LC/MS/MS. On the procedure:
FIGS. 11A-11C. Hydrolysis of (SEQ ID NO:12) […] by FM PEP, MX PEP and SC PEP. (A) Time dependence of hydrolysis in the presence of 10 μM substrate and 0.1 μM enzyme. […] (B) Initial cleavage fragments observed due to hydrolysis by FM PEP (t=1 min) and MX PEP (t=5 min). (C) Summary of initial cleavage fragments from FM PEP and MX PEP catalyzed hydrolysis of the 33-mer substrate.
Substrate Specificity. In addition to the reference substrates above, enzyme specificity was also evaluated using two immunogenic peptides derived from the sequence of γ-gliadin proteins in gluten. Both peptides were synthesized using solid-phase peptide synthesis. The peptide (SEQ ID NO:4) […] contains the immunodominant γII-epitope, and is resistant to proteolysis by pepsin or any pancreatic enzyme. PEP specificity toward this substrate was assessed in a competitive assay in which 100 μM (SEQ ID NO:4) […] and 100 μM Suc-Ala-Pro-pNA were mixed and reacted with 0.02 μM PEP at 25° C. The initial velocity of Suc-Ala-Pro-pNA cleavage was measured spectrophotometrically, whereas the initial velocity of (SEQ ID NO:4) […] hydrolysis was determined via HPLC. The apparent specificity, kcat/KM, for the hydrolysis of (SEQ ID NO:4) […] could be determined based on the known kcat/KM of the enzyme for Suc-Ala-Pro-pNA and the observed reaction rates of the two substrates. […] Proteolysis reactions were performed at 37° C. in PBS buffer with 5-100 μM peptide and 0.1 μM PEP for time periods of 1 min-4 hrs.
The decrease in substrate concentration as well as concomitant intermediate and product build-up were monitored with HPLC analysis. RP-HPLC was performed on a system consisting of Beckman or Rainin Dynamax SD-200, a Varian 340 UV detector set at 215 nm and 280 nm. Solvent A was H2O with 0.1% TFA and solvent B was acetonitrile with 0.1% TFA; gradient used: 0-5% B in 0-15 min, 5-30% B in 15-30′, 30-100% B in 30-35 min, 100% B for 5′; flow 1 ml/min; separation was performed on a 4.6×150 mm reverse phase C-18 column (Vydac, Hesperia, Calif., USA). Samples were centrifuged for 10 min at 13,400 g, prior to injection of 10-100 μl. […] Thus, multiple peptides accumulate during the course of the reaction, some of which are secondary PEP substrates in themselves.
Chain Length Tolerance and Selectivity. […] Thus, the SC PEP appears to have a severe chain length restriction for long peptide substrates.

Data set [2] deals with pepsin. The data set can be described thus: Gastric protease stability. To be noted: 1 mg/ml pepsin, pH 2. In kind it is in vitro ADME. As for the experimental part:
FIG. 9. Resistance of the FM PEP and the MX PEP to inactivation by gastric and pancreatic enzymes. Pancreatic enzyme stability was evaluated by treating 5 U/ml of the FM PEP and the MX PEP with 1 mg/ml trypsin, 1 mg/ml chymotrypsin, 0.2 mg/ml elastase and 0.2 mg/ml carboxypeptidase A (40 mM phosphate, pH=6.5). Pepsin stability was tested by treating the FM PEP and the MX PEP (5 U/ml) with 1 mg/ml pepsin (pH=2, 20 mM HCl).
Gastric and Pancreatic Protease Stability. […] Absorption was measured at 410 nm for 1 to 2 min every 10 s to assay residual activity. […] Enzyme activities are expressed as a percentage of the maximum activity, typically observed at the zero time point.
PEP Stability. […] We therefore evaluated the extent to which the activity of each PEP remains intact after 10 min of incubation at selected pH values between 1.6 and 3.9. […] Since therapeutic efficacy would require a PEP to act upon gluten in conjunction with pancreatic proteases that are secreted into the duodenum, the resistance of FM PEP and MX PEP toward both gastric and pancreatic enzymes was evaluated. For this we pre-incubated the enzymes with physiological quantities of either pepsin (at pH 2) or a cocktail comprising of trypsin, chymotrypsin, elastase and carboxypeptidase A (at pH 6.5).

The test system of data set [3] is PQPQLPYPQPQLP, 33-mer and pepsin-treated gluten. The data set can be described thus: Competitive proteolysis in pepsin-treated gluten with pancreatic enzymes and BBM. It is filed as biochemical, wheat. To be noted: pancreatic enzymes, BBM. As for the experimental part:
FIGS. 13A-13B. […] This complex mixture of substrates was treated under physiological conditions with a mixture of pancreatic enzymes (trypsin, chymotrypsin, carboxypeptidase, elastase), brush border membrane enzymes (derived from rat small intestine) and either (A) FM PEP or (B) MX PEP.
The resulting solution was neutralized using 10 M NaOH and diluted to 10 g/L in a phosphate buffer (40 mM, pH 6.5). […] Prolyl endopeptidase (FM or MX; 1×: 500 mU/ml; 5×: 2.5 U/ml; 10×: 5 U/ml) and rat intestinal brush border surface membranes (BB, 1×: 40 mU/ml, 2×: 80 mU/ml, DPP IV activity) were added to a total volume of 150 μl. The mixture was incubated at 37° C. and […] aliquots were taken at 0, 5, 10, 30 and 60 min and immediately heat deactivated.

A value given as a limit tells only on which side of the number the result lay.

B1: MX PEP: novel recombinant prolyl endopeptidase from Myxococcus xanthus (Genbank AF127082, SEQ ID NO:47) (protein, listed as Myxococcus xanthus)
chain: MSYPATRAEQVVDTLHGVQVADPYRWLEDEKAPEVQTWMTAQNAHAREALAKFPGREALAARFKELFYTDSVSTPSRRNGRFFYVRTHKDKEKAILYWRQGESGQEKVLLDPNGWSKDGTVSLGTWAVSWDGKKVAFAQKPNAADEAVLHVIDVDSGEWSKVDVIEGGKYATPKWTPDSKGFYYEWLPTDPSIKVDERPGYTTIRYHTLGTEPSKDTVVHERTGDPTTFLQSDLSRDGKYLFVYILRGWSENDVYWKRPGEKDFRLLVKGVGAKYEVHAWKDRFYVLTDEGAPRQRVFEVDPAKPARASWKEIVPEDSSASLLSVSIVGGHLSLEYLKDATSEVRVATLKGKPVRTVQLPGVGAASNLMGLEDLDDAYYVFTSFTTPRQIYKTSVSTGKSELWAKVDVPMNPEQYQVEQVFYASKDGTKVPMFVVHRKDLKRDGNAPTLLYGYGGFNVNMEANFRSSILPWLDAGGVYAVANLRGGGEYGKAWHDAGRLDKKQNVFDDFHAAAEYLVQQKYTQPKRLAIYGGSNGGLLVGAAMTQRPELYGAVVCAVPLLDMVRYHLFGSGRTWIPEYGTAEKPEDFKTLHAYSPYHHVRPDVRYPALLMMAADHDDRVDPMHARKFVAAVQNSPGNPATALLRIEANAGHGGADQVAKAIESSVDLYSFLFQVLDVQGAQGGVAAQGR
B1: the “rate of substrate (33-mer+32-mer) disappearance” value in data set [1] (0.1 μM enzyme) came out at 0.43 µM/min. In addition, in data set [1], the “initial hydrolytic products of the 33-mer” value is “fragments mostly of 4-5 residues”. Besides, the resistance to pepsin result in data set [2] was “highly susceptible to pepsin catalyzed proteolysis”. Also, in data set [3], the “relative rates of proteolysis of PQPQLPYPQPQLP, 33-mer and other gluten peptides” value was “hydrolysis of the 33-mer occurred at a slower rate”; the “time for breakdown of PQPQLPYPQPQLP and other smaller peptides” value is 10 min.

B2: FM PEP: recombinant prolyl endopeptidase from Flavobacterium meningosepticum (Genbank D10980) (protein)
chain: QNSNVLKYPETKKVSHTDTYFGTQVSDPYRWLEDDRAEDTKAWVQQEVKFTQDYLAQIPFRDQLKKQLMDIWNYEKISAPFKKGKYTYFSKNDGLQAQSVLYRKDAAGKTEVFLDPNKFSEKGTTSLASVSFNKKGTLVAYSISEGGSDWNKIIILDAETKKQLDETLLDVKFSGISWLGDEGFFYSSYDKPKEGSVLSGMTDKHKVYFHKLGTKQSQDELIIGGDKFPRRYIGAYVTDDQRYLVVSAANATNGNELYIKDLKNKTDFIPIITGFDSNVNVADTDGDTLYLFTDKDAPNKRLVKTTIQNPKAETWKDVIAETSEPLEINTGGGYFFATYMKDAIDQVKQYDKNGKLVRAIKLPGSGNASGFGGEKTEKDLYYSFTNYITPPTIFKYNVTTGNSEVYQKPKVKFNPENYVSEQVFYTSSDGTKIPMMISYKKGLKKDGKNPTILYSYGGFNISLQPAFSVVNAIWMENGGIYAVPNIRGGGEYGKKWHDAGTKMQKKNVFNDFIAAGEYLQKNGYTSKEYMALSGRSNGGLLVGATMTMRPDLAKVAFPGVGVLDMLRYNKFTAGAGWAYDYGTAEDSKEMFEYLKSYSPVHNVKAGTCYPSTMVITSDHDDRVVPAHSFKFGSELQAKQSCKNPILIRIETNAGHGAGRSTEQVVAENADLLSFALYEMGIKSLK
Take B2: in data set [1] (0.1 μM enzyme), the “time to hydrolyze 10 μM of the 33-mer” value was 2 to 3 min and the “rate of substrate (33-mer+32-mer) disappearance” value was 2.3 µM/min. The “initial hydrolytic products of the 33-mer” value in data set [1] was “yielded longer intermediates”. Besides, in data set [1] (based on initial rates), the “faster action on the 33-mer than the MX PEP” value is reported as 5 fold and the “faster action on the 33-mer than the SC PEP” value was greater than 20 fold. Further, the resistance to pepsin entry in data set [2] is “highly susceptible to pepsin catalyzed proteolysis”. In data set [3], the “relative rates of proteolysis of PQPQLPYPQPQLP, 33-mer and other gluten peptides” value is reported as “at comparable rates”.
